Tests used:
[1] = molecular target: T1, CPTGPQNYSP, C-terminal neo-epitope sequence of the α1 chain PIIINP (free calibrator peptide); assay: hybridoma screening, indirect ELISA on streptavidin-coated plates with the free peptide as calibrator
T1 construct: also called PRO-C3
T1 peptide: CPTGPQNYSP
Method: A monoclonal antibody specific for Pro-C3 was developed as described in WO 2014/170312 (Nordic Bioscience, incorporated herein by reference) using sequence 145′-[…]-′153 (SEQ ID No: 14) of the α1 chain PIIINP as an immunogenic peptide. Briefly, generation of monoclonal antibodies was initiated by subcutaneous immunization of 4-5 week old Balb/C mice with 200 μl emulsified antigen and 50 μg PIIINP neo-epitope C-terminus sequence (OVA-CGG-[…] (SEQ ID No: 32)) using Freund's incomplete adjuvant. The immunizations were repeated every 2 weeks until stable serum titer levels were reached. The spleen cells were fused with SP2/0 myeloma cells to produce hybridoma, and cloned in culture dishes using the semi-medium method. The supernatants were screened for reactivity against calibrator peptide and native material in an indirect ELISA using streptavidin-coated plates. Biotin-CGG-[…] (SEQ ID No: 33) was used as screening peptide, while the free peptide […] (SEQ ID No: 14) was used as calibrator to test for further specificity of clones.

[2] = molecular target: T2, truncated peptide KPGVISVMG; assay: screening of hybridoma cell lines against peptides
T2 peptide: KPGVISVMG
Method: (§1) Mouse spleen cells were fused with SP2/0 myeloma fusion partner cells. The fusion cells were raised in 96-well plates and incubated in the CO2-incubator. Here standard limited dilution was used to promote monoclonal growth. Cell lines specific to the selection peptide and without cross-reactivity to either elongated peptide ([…] (SEQ ID No: 2), Chinese Peptide Company, China) or truncated peptide ([…] (SEQ ID No: 3), American Peptide Company, USA) were selected and sub-cloned. At last the antibodies were purified using an IgG column.

[3] = molecular target: T3, elongated peptide KPGVISVMGTA; assay: screening of hybridoma cell lines against peptides
T3 peptide: KPGVISVMGTA
Method: as §1

[4] = molecular target: T4, KPGVISVMGT, last 10 amino acids of the type VI collagen α3 chain (selection / immunogenic peptide); assay: screening of hybridoma cell lines against peptides
T4 construct: also called PRO-C6
T4 peptide: KPGVISVMGT
Method: as §1

B1: monoclonal antibody specific for Pro-C3 (monoclonal antibody NB61N-62) (antibody, V domains shown)
VH: EVQLQQSGPEVLKPGASVKMSCKASGYTFINYVIHWLKQKAGQGPEWIGYMNPYNDVPKNNAKFRGKARLTSDRSSTTAYMELNSLTSEDSAVYYCARGGFFGPLSYWGQGTLVTVSA
VL: DVLMTQTPLSLSVSLGDQASISCRSSQNIVYSNGDTYFEWYLQKPGQSPKLLIYKVSQRFSGVPDRFSGSGSGTDFTLKISRVETEDLGVYYCFQGAHDPPAFGGGTKLELKR
notes: Mouse IgG2A / kappa; also called PRO-C3 antibody
B1: binds [1].

B2: monoclonal antibody specific for Pro-C6 (monoclonal antibody 10A3) (antibody, mouse IgG1, kappa, V domains shown)
VH: EVQLQQSGPVMVKPGTSVKTSCKASGYTFTDFNMNWVKQSHGKSLEWIGAINPHNGATSYNQKFSGKATLTVDKSSSTAYMELNSLTSDDSAVYYCARWGNGKNSWGQGTTLTVSS
VL: DVVMTQTPLSLPVNLGDQASISCRSSQRIVHSNGITFLEWYLQKPGQSPKLLIYRVSNRFSGVPDRFSGSGSGTDFTLKISRVEAEDLGLYYCFQGSHVPLTFGAGTRLELKR
notes: Mouse IgG1 / kappa from a hybridoma; the antibodies were purified on an IgG column afterwards; also called PRO-C6 antibody
B2: no binding [2]; no binding [3]; binds [4].

From patent publication US20220317133A1 (NORDIC BIOSCIENCE A S, published 2022)
